Data from article PMC7020990, “Structural and biochemical analysis of the metallo‐β‐lactamase L1 from emerging pathogen Stenotrophomonas maltophilia revealed the subtle but distinct di‐metal scaffold for catalytic activity” (Protein Science : A Publication of the Protein Society, 2019).

Target: the molecule itself
Experiment: crystal structure; L1‐Native in space group P2_(1) with the tetramer in the asymmetric unit; all other L1 structures in P6_(4)22 with one chain in the asymmetric unit and the same tetramer formed by crystallographic twofold symmetries

B1: Metallo‐β‐lactamase L1 from Stenotrophomonas maltophilia K279a (enzyme)
chain: SNASAAEAPLPQLRAYTVDASWLQPMAPLQVADHTWQIGTEDLTALLVQTAEGAVLLDGGMPQMAGHLLDNMKLRGVAPQDLRLILLSHAHADHAGPVAELKRRTGAHVAANAETAVLLARGGSNDLHFGDGITYPPASADRIIMDGEVVTVGGIAFTAHFMPGHTPGSTAWTWTDTRDGKPVRIAYADSLSAPGYQLKGNPRYPRLIEDYKRSFATVRALPCDLLLTPHPGASNWNYAVGSKASAEALTCNAYADAAEKKFDAQLARETAGTR
notes: N-terminal Ser‐Asn‐Ala cloning artifact left after TEV cleavage (numbered residues 17–19); Metallo‐β‐lactamase L1 (subclass B3), S. maltophilia K279a, residues 20-290; 88% identical to the L1 of the other strain in earlier structures; Two Zn ions per chain in the native form; Cloned in pMCSG53; also called L1 MBL; L1‐Native; not shown: His‐tag, N-terminal, cleaved
stoichiometry N: 4
